US20120276102A1 (Pfizer, published 2012)
Positions count from the first letter of the chain named. One block for each binder: values may come before it.

Assays:
[1] = molecular target: T1, human IL-21R extracellular domain His-Flag fusion protein (human, UniProt Q9HBE5 20-232); assay: SPR, Ab captured on anti-human IgG, replicate experiment; Table 7B, human IL-21R-His/FLAG
T1 construct: Biotinylated in the HTRF screen; also called hIL-21R-H/F; human IL-21R-H/F
Method: The kinetics of binding of anti-IL-21R antibodies to human and murine IL-21R-H/F was tested on a BIACORE™ surface plasmon resonance instrument. Anti-human IgG antibodies (Invitrogen Corporation) were immobilized onto a research-grade carboxy-methyl-dextran chip (CM5) using standard amine coupling. The surface was activated with EDC/NHS for 7 min at a flow of 20 μl/min. The first flow cell was used as a reference surface to correct for bulk refractive index, matrix effects, and nonspecific binding. The anti-human-Fc antibody was diluted to 20 μg/ml in 10 mM sodium acetate buffer (pH 5.0), and 2950-3405 resonance units (RU) were captured on each of the four flow cells. Remaining activated groups were blocked with 1.0 M ethanolamine-HCl (pH 8.5).
Anti-IL-21R antibodies were diluted to 0.1-0.2 μg/ml in HBS/EP buffer supplemented with 0.2% bovine serum albumin and loaded onto the BIACORE™ chip. Following a brief washing period, solutions of 0-100 nM human IL-21R-H/F or 10-500 nM murine IL-21R-H/F were injected over the chip at a flow rate of 50 μl/min. The association phase was run for 3 min for human and murine IL-21R kinetics, and the dissociation phase was monitored for 15 min for hIL-21R and for 5 min for mIL-21R, followed by two 10 μl injections and one 30 μl injection of glycine (pH 1.5), to regenerate a fully active capturing surface. […]

human soluble IL-4R = molecular target: T2, human soluble IL-4R (human, UniProt P24394 26-232, limits assumed); assay: SPR, Ab captured
T2 construct: also called human sIL-4R
Procedure, shortened: (§1)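 SPR at 25 °C in HBS/EP: antibodies from conditioned media captured (500-700 RU) on amine-coupled anti-human IgG or anti-murine Ig on CM5 chip. 50 nM analyte injected, association 120 s and dissociation 180 s; glycine pH 1.5 regeneration, double-referenced sensorgrams.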

human IL-13-His/FLAG = molecular target: T3, human IL-13-His/FLAG (human, UniProt P35225 35-146, limits assumed); assay: SPR, Ab captured
T3 construct: Unrelated His/FLAG-tagged control; also called human IL-13-H/F
Procedure, shortened: as §1

human IL-2Rβ = molecular target: T4, human IL-2Rβ (human, UniProt P14784 27-239); assay: SPR, Ab captured
T4 sequence (looked up): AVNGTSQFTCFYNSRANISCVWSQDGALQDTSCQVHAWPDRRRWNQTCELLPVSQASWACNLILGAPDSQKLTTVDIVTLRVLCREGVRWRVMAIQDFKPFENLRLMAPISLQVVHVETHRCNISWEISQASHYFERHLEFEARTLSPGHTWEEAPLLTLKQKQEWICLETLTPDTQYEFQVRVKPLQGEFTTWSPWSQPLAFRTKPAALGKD
Procedure, shortened: as §1

[2] = molecular target: T5, rabbit IL-21R-Fc isoform 2 (rabbit); assay: ELISA; competitor 10% conditioned medium containing rabbit IL-21
T5 construct: extracellular domain

[3] = molecular target: T6, rabbit IL-21R-Fc isoform 1 (rabbit); assay: as above
T6 construct: extracellular domain

T1 sequence (Q9HBE5 20-232): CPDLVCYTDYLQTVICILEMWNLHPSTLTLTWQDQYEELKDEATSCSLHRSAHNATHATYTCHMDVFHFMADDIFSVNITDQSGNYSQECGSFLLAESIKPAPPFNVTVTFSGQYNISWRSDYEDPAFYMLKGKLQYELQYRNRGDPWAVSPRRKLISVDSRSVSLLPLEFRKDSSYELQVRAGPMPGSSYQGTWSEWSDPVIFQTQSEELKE
T3 sequence (P35225 35-146 limits assumed): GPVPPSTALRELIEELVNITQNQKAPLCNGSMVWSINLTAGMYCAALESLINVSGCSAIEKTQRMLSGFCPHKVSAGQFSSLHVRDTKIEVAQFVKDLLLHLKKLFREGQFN

kon [1]: 439000 M⁻¹ s⁻¹
B1: AbQ (antibody, human IgG1, V domains shown)
VH: QVQLQESGPGLVKPSETLSLTCAVSGYSISSGYYWGWIRQPPGKGLEWIGSISHTGNTYYNPPLKSRVTISVDTSKNQFSLKLSSVTAADTAVYYCARFMGFGRPEYWGQGTLVTVSS
VL: SSELTQDPAVSVALGQTVRITCQGDSLRTYYASWYQQKPGQAPVLVIYGKHKRPSGIPDRFSGSSSGNTASLTITGAQAEDEADYYCVARSVVGNPHVLFGGGTQLTVL
notes: CDR3 graft, residue limits derived as for m29; also called VH3/VL2; VH3DM/VL2

binding result (human soluble IL-4R): no binding (tested: 50 nM)
binding result (human IL-13-His/FLAG): no binding (tested: 50 nM)
binding result (human IL-2Rβ): no binding (tested: 50 nM)
B2: parental 18A5 antibody (antibody, V domains shown)
VH: B1 VH with P14T, F99G, M100G, F102I, G103S, Q110K
VL: SSELTQDPPVSVALGQTVTLTCQGDSLRTYYASWYQQKSGQAPILLLYGKHKRPSGIPDRFSGSTSGDTASLTITGAQAEDEADYYCNSRDSSGNPHVLFGGGTQLTVL
notes: also called 18A5 IgG

fold reduction of binding in the presence of rabbit IL-21 [2]: ~10 fold
fold reduction of binding in the presence of rabbit IL-21 [3]: ~10 fold
B3: AbS (antibody, V domains shown)
VH: B1 VH with F99G, M100G, F102I, G103S
VL: B1 VL with V88M, A89S, V92I, V93W
notes: CDR3 graft, residue limits derived as for m29; also called VHP/VL6; VHPTM/VL6
